The test concerns the target Human PSMA (Prostate-Specific Membrane Antigen) (human) (UniProt Q04609). As to the kind of experiment: ELISA, human PSMA coated on plate, anti-human-IgG-HRP detection. For orientation: An ELISA detects its analyte on a solid surface through an enzyme-linked reagent.

Sequence of Human PSMA (Prostate-Specific Membrane Antigen) (human) (Q04609 44-750 limits assumed): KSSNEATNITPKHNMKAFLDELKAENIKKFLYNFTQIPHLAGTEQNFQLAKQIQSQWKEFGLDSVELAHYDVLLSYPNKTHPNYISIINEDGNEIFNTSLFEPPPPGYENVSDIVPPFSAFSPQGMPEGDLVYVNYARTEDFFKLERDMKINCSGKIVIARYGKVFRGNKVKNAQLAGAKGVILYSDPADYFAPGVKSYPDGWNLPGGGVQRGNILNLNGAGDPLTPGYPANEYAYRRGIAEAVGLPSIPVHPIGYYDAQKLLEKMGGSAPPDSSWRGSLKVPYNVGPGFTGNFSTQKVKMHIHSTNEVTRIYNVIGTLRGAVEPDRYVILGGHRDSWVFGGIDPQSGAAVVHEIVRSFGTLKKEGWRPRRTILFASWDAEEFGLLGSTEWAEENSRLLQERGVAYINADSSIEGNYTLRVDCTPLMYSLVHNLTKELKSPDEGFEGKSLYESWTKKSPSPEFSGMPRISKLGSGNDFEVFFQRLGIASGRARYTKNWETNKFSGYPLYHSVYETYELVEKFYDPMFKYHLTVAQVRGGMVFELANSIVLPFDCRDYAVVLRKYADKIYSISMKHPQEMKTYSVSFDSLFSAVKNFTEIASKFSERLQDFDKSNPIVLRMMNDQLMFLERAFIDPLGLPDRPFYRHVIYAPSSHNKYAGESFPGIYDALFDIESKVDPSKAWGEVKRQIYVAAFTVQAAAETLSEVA

The substance J591 (antibody) gave an EC50 of 0.271 nM.

A word on the EC50: it is the midpoint of the concentration-response curve. Low readings indicate higher potency in that assay, high ones lower potency in that assay.
